Experimental findings from patent US6875741 (Novo Nordisk, dated 2005) are described below.

Test [1] deals with T1, human insulin receptor (HIR) (human, UniProt P06213 28-1382, limits assumed).
T1 construct: solubilized receptor from transfected cells
The experiment in a line: 125I-insulin competition, solubilized HIR.

For test [2], the target named is T2, soluble human insulin receptor-immunoglobulin heavy chain chimera (human, UniProt P06213 28-956, limits assumed).
T2 construct: extracellular domain; also called sIR-Fc; slR-Fc; not shown: immunoglobulin heavy chain constant domains
The experiment in a line: ratio of IC50 on rhIGF-1R (TR-FRET vs b-20E2) to IC50 on sIR-Fc (FP vs FITC-RP9).

No end group written: not given here.

As usually defined, the Kd is the constant that tells how readily two partners part at equilibrium. Lower therefore signals higher affinity. Regarding DWLQRNANFYDWFVAEL (not fully specified; C-terminal Lig′, linker 14) [S300], binding in test [1] was put at a Kd of 50 nM. This lies in the double-digit nanomolar range.

As to XGSLDESFYDWFERQLGKK (N-terminal Ald, linker 19, N-N dimer) [S376], binding in test [1] was characterised by a dissociation constant (Kd) of 160 nM.

Consider CGFHENFYDWFVRQVSKK (also: N-N dimer, two chains linked at Cys1, N-N dimer) [S170], for which, in test [1], the Kd was found to be 700 nM. Compared with the last molecule, the Kd is about 4.4-fold higher.

B1: G33 (peptide)
peptide: GIISQSCPESFYDWFAGQVSDPWWCW
notes: Formula 1, Site 1 peptide; also called H2CA-4-G9-IGFR; S326
Regarding B1, in test [2], the “Binding Ratio IGF-1R/IR” value amounted to 1.3.

For XGSLDESFYDWFERQLGKK (not fully specified; N-terminal Ald, linker 17, N-N dimer) [S374], the affinity in test [1], expressed as Kd, was 180 nM.

Molecule EEDWLQRNANFYDWFVAELX (C-terminal Lig′ (printed LiG′), linker 23, C-C dimer) [S381] yielded a Kd in test [1] of 120 nM.

For the molecule XGSLDESFYDWFERQLGKK (not fully specified; N-terminal Lig′, linker 24, N-N dimer) [S362], the affinity in test [1], expressed as Kd, was 110 nM.

B2: RP9 (peptide)
peptide: GSLDESFYDWFERQLG
notes: Formula 1, Site 1 peptide; also called H2C-PD1-IGFR
As to B2, the “Binding Ratio IGF-1R/IR” value in test [2] came to 1.4.

Molecule GSLDESFYDWFERQLGKKX (not fully specified; C-terminal Lig′, linker 24, C-C dimer) [S361] yielded a Kd in test [1] of 2200 nM. This lies in the single-digit micromolar range.
